Data reported in patent US20240239894A1 (AstraZeneca / MedImmune, published 2024).
Residue numbers refer to the chain shown, from its start.

T1: Human B7-H4 ECD-Flag-His10 (monomeric) (human, UniProt Q7Z7D3 25-259)
T1 construct: Minimally biotinylated for KinExA; also called hB7H4-ECD-Flag-His10; B7-H4-FLAG
T1 sequence: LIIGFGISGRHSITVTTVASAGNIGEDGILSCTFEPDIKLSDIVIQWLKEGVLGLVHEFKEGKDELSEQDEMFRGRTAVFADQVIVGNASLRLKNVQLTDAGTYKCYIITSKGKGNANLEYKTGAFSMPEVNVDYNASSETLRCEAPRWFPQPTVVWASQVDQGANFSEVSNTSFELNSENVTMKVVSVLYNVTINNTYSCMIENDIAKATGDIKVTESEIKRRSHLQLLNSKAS

T2: Murine B7-H4 ECD-Flag-His10 (monomeric) (mouse, UniProt Q7TSP5 25-257)
T2 construct: extracellular domain; also called FlagHis10 murine B7-H4
T2 sequence (looked up): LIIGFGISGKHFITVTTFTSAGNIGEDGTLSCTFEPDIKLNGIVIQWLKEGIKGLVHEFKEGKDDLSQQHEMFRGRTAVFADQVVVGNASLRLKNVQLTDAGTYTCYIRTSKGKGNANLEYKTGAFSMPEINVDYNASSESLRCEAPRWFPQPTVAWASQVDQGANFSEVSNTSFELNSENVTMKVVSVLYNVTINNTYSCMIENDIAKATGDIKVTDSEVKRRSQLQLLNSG

T3: huHHLA2 (human, UniProt Q9UM44 23-344)
T3 construct: Sourced antigen; construct not described; also called Human HHLA2
T3 sequence (looked up): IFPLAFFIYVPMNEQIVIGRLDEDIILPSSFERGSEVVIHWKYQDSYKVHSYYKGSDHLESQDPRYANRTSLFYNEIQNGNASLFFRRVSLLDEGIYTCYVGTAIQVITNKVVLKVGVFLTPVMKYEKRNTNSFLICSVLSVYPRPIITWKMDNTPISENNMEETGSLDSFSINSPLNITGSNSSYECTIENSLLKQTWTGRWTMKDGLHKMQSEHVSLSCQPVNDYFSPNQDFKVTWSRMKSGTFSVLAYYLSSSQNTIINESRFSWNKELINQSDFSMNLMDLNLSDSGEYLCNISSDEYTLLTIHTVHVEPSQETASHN

T4: huBTN2A1 (human, UniProt Q7KYR7 29-248, limits assumed)
T4 construct: Sourced antigen; construct not described; also called Human BTN2A1
T4 sequence (looked up): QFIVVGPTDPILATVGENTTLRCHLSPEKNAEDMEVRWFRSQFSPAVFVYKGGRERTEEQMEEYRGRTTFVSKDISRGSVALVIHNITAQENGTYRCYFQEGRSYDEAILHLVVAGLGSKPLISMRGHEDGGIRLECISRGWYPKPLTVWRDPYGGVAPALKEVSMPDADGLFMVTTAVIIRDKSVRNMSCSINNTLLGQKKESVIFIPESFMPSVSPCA

T5: huB7-H3 (human, UniProt Q5ZPR3 29-461, limits assumed)
T5 construct: Sourced antigen; construct not described; also called Human B7-H3
T5 sequence (looked up): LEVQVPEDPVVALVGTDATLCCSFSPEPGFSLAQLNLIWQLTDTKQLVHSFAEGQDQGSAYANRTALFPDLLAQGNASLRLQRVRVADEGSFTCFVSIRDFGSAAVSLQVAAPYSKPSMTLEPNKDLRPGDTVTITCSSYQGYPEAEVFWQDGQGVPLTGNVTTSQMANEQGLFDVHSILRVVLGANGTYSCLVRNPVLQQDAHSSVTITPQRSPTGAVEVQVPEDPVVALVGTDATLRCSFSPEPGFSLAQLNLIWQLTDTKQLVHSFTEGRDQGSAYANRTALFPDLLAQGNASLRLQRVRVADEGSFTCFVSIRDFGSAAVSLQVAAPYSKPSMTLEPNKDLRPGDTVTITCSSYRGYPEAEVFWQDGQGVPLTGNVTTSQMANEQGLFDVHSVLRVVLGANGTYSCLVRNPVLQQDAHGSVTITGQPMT

T6: huBTNL3 (human, UniProt Q6UXE8 18-237, limits assumed)
T6 construct: Sourced antigen; construct not described; also called Human BTNL3
T6 sequence (looked up): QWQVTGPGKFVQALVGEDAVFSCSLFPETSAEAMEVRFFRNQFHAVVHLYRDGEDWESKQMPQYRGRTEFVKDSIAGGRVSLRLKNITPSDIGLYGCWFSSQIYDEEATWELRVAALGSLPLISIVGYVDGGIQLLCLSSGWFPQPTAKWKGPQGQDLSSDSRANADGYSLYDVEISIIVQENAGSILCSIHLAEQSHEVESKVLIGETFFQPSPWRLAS

T7: huBTN1A1 (human, UniProt Q13410 27-242, limits assumed)
T7 construct: Sourced antigen; construct not described; also called Human BTN1A1
T7 sequence (looked up): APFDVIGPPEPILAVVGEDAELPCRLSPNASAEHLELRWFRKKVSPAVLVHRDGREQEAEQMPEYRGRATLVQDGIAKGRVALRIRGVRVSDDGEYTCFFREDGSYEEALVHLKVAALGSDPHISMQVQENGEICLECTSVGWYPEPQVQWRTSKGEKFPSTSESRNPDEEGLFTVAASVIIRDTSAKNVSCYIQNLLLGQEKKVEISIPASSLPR

B1: ZY0EQD-E02 human IgG1-TM (antibody, V domains shown)
VH: QVQLQQWGAGLLKPSETLSLTCAVYGGSFSGYYWNWIRQPPGKGLEWIGEINHSGSTSYNPSLKSRVTISVDTSKNQFSLKLSSVTAADTAVYYCARVLYNWNVDSWGQGTLVTVSS
VL: DIQMTQSPSSLSASVGDRVTITCRASQDIRNDVGWYQQKPGKAPKRLIYAASRLQSGVPSRFSGSGSGTEFTLTISSLQPEDFATYYCLQHNSYPRTFGQGTKVEIK
B2: ZY0EOB-F05 human IgG1-TM (antibody, V domains shown)
VH: QVQLQESGPGLVKPSQTLSLTCTVSDGSISSGGYYWSWIRQHPGKGLEWIGNIYYSGSTYYNPSLKSRVTISVDTSKNQFSLKLNSVTAADTAVYYCATEKALATVTPSGYENYYTVDVWGQGTTVTVSS
VL: DIQLTQSPSFLSASVGDRVTITCWASQGISSYLAWYQQKPGKAPKLLIYAASTLQSGVPSRFSGSGSGTEFTLTISSLQPEDFATYYCQHLNSYPLTFGGGTKVEIK
B3: ZY0EP0-C07 human IgG1-TM (antibody, V domains shown)
VH: QVQLVESGGVLVKPGGSLRLSCAASGFTLSDYYMSWIRQAPGMGLEWVSYISSSGSTIYYTDSVKGRFTISRDSAKNSLYLQMNSLRAEDTAVYYCARDGVGFDYWGQGTLVTVSS
VL: EIVLTQSPGTLSLFPGERATLSCRASQSVSSSYLAWYQQKPGQSPRLLIYAASSRATGIPDRFSGSGSGTDFTLTISRLEPEDFAVYYCQQYGSSPLYTFGQGTKLEIK
notes: also called ZY0EPO-C07
B4: ZY0EPQ-E02 human IgG1-TM (antibody, V domains shown)
VH: B1 VH with S58N, S70L, V98N, V104L
VL: B1 VL with D28G, V33L, K42R, A50V, R53S

Key:
[1] = target: T1, Human B7-H4 ECD-Flag-His10 (monomeric); experiment: Octet BLI, hIgG1-TM on Protein G (n = 4-7)
[2] = target: T8, Human B7H4 ECD (SV), splice variant, 10His_FLAG (human); experiment: Octet BLI, hIgG1-TM on Protein G (n = 4-7)
T8 construct: also called B7-H4-SV

[3] = target: T2, Murine B7-H4 ECD-Flag-His10 (monomeric); experiment: Octet BLI, hIgG1-TM on Protein G (n = 4-7)
[4] = target: T9, huB7-H1 (human, UniProt Q9NZQ7 19-238); experiment: ELISA
T9 construct: Sourced antigen; construct not described; also called Human B7-H1

[5] = target: T3, huHHLA2; experiment: ELISA
[6] = target: T4, huBTN2A1; experiment: ELISA
[7] = target: T10, huBTN3A2 (human, UniProt P78410 30-248, limits assumed); experiment: ELISA
T10 construct: Sourced antigen; construct not described; also called Human BTN3A2

[8] = target: T5, huB7-H3; experiment: ELISA
[9] = target: T6, huBTNL3; experiment: ELISA
[10] = target: T7, huBTN1A1; experiment: ELISA

T9 sequence (Q9NZQ7 19-238 limits assumed): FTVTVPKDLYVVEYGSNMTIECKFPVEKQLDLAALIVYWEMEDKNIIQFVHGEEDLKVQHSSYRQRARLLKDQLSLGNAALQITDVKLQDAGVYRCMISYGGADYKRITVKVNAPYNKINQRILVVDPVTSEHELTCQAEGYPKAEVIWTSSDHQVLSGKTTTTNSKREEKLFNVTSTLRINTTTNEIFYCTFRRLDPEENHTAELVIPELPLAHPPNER
T10 sequence (P78410 30-248 limits assumed): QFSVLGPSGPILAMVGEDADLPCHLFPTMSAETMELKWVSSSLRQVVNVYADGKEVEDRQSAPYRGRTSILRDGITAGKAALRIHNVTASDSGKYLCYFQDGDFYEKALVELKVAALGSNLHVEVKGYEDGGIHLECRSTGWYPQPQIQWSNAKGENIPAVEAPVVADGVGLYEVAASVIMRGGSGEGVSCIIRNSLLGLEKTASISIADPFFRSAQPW

Row | Binder | Kd [1] [nM] | koff [1] [s⁻¹] | kon [1] [M⁻¹ s⁻¹] | Kd [2] [nM] | koff [2] [s⁻¹] | kon [2] [M⁻¹ s⁻¹] | Kd [3] [nM] | koff [3] [s⁻¹] | kon [3] [M⁻¹ s⁻¹] | binding result [4] | binding result [5] | binding result [6] | binding result [7] | binding result [8] | binding result [9] | binding result [10]
1 | B1 | 14.4 | 0.00278 | 193000 | 801 | 0.00269 | 3360 | 621 | 0.126 | 203000 | no binding | no binding | no binding | no binding | no binding | no binding | no binding
2 | B2 | 13.4 | 0.000355 | 26500 | 174 | 0.000584 | 3350 | 25 | 0.000476 | 18700 | no binding | no binding | no binding | no binding | no binding | no binding | no binding
3 | B3 | 9.4 | 0.000397 | 41600 |  |  |  | 11 | 0.000524 | 43000 | no binding | no binding | no binding | no binding | no binding | no binding | no binding
4 | B4 | 25.7 | 0.00182 | 70900 | 1660 | 0.00229 | 1380 | 396 | 0.0304 | 76700 | no binding | no binding | no binding | no binding | no binding | no binding | no binding
